Results: publication PMC9884275, “Metamorphism in TDP-43 prion-like domain determines chaperone recognition” (Nature Communications, 2023)

Legend:
Settings in all cases: both partners purified
DNAJA2 = target: T1, DNAJA2 (human, UniProt O60884 1-412); assay: NMR titration; 15N-HSQC at 15 °C, 800 MHz; 25–35 μM 15N/13C-labelled PLD in NMR buffer with 10 mM DTT (5 mM ZnCl2 for DNAJA2); unlabelled JDP co-chaperones added; signal intensity decay shown at 1:2 molar ratio
T1 construct: DNAJA2, human, cDNA cloned into pET28a (GenScript); 5 mM ZnCl2 and 10 mM DTT were added to its NMR samples; also called HSP40 (class A JDP)

DNAJC7 = target: T2, DNAJC7 (human, UniProt Q99615 1-494); assay: NMR titration; 15N-HSQC at 15 °C, 800 MHz; 25–35 μM 15N/13C-labelled PLD with HSP72 and a JDP at 1:2:2 molar ratio (PLD:HSP70:co-chaperone), NMR buffer with 10 mM DTT
T2 construct: DNAJC7, human, cDNA cloned into pET28a (GenScript); also called HSP40 (class C JDP)
T2 sequence (looked up): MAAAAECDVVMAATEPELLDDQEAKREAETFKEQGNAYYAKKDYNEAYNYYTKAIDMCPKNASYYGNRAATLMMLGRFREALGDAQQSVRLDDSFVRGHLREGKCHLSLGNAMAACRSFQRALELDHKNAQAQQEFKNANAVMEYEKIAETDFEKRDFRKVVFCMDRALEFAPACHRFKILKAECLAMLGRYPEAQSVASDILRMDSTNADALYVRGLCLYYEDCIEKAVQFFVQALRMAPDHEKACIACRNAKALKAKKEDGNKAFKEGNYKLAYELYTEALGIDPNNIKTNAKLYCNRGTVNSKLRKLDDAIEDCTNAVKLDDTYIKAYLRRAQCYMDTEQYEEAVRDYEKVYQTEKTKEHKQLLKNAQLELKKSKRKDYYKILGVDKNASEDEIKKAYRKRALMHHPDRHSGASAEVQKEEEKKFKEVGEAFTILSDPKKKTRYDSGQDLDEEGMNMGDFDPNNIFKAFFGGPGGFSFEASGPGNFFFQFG

DNAJB1 = target: T3, DNAJB1 (human, UniProt P25685 1-340); assay: as above
T3 construct: DNAJB1, human, cDNA cloned into pET28a (GenScript); also called HSP40 (class B JDP)

DNAJB4 = target: T4, DNAJB4 (human, UniProt Q9UDY4 1-337); assay: as above
T4 construct: DNAJB4, human, cDNA cloned into pET28a (GenScript); also called HSP40 (class B JDP)
T4 sequence (Q9UDY4 whole entry): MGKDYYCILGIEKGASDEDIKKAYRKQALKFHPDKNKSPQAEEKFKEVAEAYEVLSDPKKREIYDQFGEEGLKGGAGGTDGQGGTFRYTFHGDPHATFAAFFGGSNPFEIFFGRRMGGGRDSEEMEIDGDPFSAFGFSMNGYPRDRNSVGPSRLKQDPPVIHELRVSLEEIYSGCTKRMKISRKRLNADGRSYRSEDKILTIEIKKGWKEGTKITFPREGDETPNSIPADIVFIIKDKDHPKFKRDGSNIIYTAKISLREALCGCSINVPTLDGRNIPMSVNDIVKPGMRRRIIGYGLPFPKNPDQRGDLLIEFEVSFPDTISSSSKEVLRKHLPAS

T3 sequence (P25685 whole entry): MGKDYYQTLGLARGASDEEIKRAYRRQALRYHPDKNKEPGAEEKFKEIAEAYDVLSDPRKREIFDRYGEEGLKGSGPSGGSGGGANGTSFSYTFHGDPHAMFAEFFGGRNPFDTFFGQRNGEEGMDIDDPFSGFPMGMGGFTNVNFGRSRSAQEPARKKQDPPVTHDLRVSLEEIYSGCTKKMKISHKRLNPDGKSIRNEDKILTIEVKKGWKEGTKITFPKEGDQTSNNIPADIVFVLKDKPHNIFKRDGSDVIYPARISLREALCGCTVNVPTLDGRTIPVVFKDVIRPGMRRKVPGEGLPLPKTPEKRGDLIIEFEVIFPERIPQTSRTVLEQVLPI
T1 sequence (O60884 whole entry): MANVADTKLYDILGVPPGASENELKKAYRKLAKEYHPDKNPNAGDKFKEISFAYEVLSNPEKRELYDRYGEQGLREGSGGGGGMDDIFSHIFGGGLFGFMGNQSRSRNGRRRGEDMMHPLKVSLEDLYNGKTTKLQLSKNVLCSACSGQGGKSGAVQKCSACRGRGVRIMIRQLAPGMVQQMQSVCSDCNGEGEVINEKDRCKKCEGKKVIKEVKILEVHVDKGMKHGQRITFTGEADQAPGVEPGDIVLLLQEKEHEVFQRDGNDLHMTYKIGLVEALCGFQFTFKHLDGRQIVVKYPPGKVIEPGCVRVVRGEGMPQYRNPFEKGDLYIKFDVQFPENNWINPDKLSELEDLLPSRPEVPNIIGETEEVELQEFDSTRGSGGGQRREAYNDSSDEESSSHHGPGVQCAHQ

binding result (DNAJA2): binds
binding result (DNAJC7): binds
binding result (DNAJB1): binds
binding result (DNAJB4): binds
B1: TDP-43 prion-like domain (fragment 274-414 of human TDP-43) (domain or fragment, UniProt Q13148 274-414, looked up)
chain: GRFGGNPGGFGNQGGFGNSRGGGAGLGNNQGSNMGGGMNFGAFSINPAMMAAAQAALQSSWGMMGMLASQQNQSGPSGNNQNQGNMQREPNQAFGSGNNSYSGSNSGAAIGWGSASNAGSGSGFNGGFGSSMDSKSSGWGM
notes: TDP-43, human, UniProt Q13148, C-terminal prion-like domain, residues 274-414; 15N/13C-labelled for the NMR experiments; also called PLD; TDP-43 PLD; not shown: Thioredoxin (TXA), N-terminal, cleaved; His6, N-terminal, cleaved
